Our source for the MFI and koff values is CN106084046A (UNIV SUN YAT SEN, dated 2016).

Test [1] deals with CD3 on Jurkat靶标细胞 (human) (UniProt P07766). As to the kind of experiment: flow cytometry, culture supernatant of the negative control sdAb on Jurkat cells (TG1 background supernatant: 132.03). A general note: A flow cytometer gives signals particle by particle.
The target is the same in test [2]. As to the kind of experiment: flow cytometry, culture supernatant on Jurkat cells.
Test [3] addresses T1, CD3-His蛋白(MP-5) (human, UniProt P07766 23-126).
T1 construct: Immunogen and panning antigen; also called CD3蛋白; not shown: His tag
Nature of the test: BLI (Octet RED96) off-rate screen, sdAb-SASA from expression medium captured on BSA-coated biosensor, 100 nM CD3 in solution, 30°C, 1:1 Langmuir model. On the technique in general: BLI is a label-free optical method that tracks binding on a fibre tip over time.

T1 sequence (P07766 23-126): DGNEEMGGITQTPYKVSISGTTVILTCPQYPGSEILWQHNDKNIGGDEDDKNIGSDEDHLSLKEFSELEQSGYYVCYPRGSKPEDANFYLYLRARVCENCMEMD

As for NC-sdAb(相同形式的非相关性sdAb) (VHH), the MFI in test [1] was 115 MFI.

B1: 抗CD3单域抗体 A30249 (VHH)
VHH: QVKLEESGGGLVQAGGSLRVSCTASGRTFDTMGWFRQAPGKEREFVAAVRWSSGNTLYGNTVKGRFTISRDTATNTVYLQMSSLKHEDTAVYYCAARVGGRGAADHWGQGTQVTVSS
notes: Llama sdAb from a phage display library; Tested as sdAb-SASA protein in crude expression medium / culture supernatant, not purified; also called sdAb; sdAb-SASA; not shown: SASA fusion partner from the pFASEBA vector (sdAb-SASA protein in expression medium)
The term koff denotes a measure of how fast the partners let go of each other. Higher therefore signals fast dissociation. As for B1, the MFI in test [2] came to 217 MFI. In addition, in test [3], the koff stood at 4.92e-05 s⁻¹.
